experiment: soluble on expression in E. coli; label from the status in PepcDB or PDB records

| Sequence | soluble on expression in E. coli |
| --- | --- |
| MGSDKIHHHHHHVTEPLKFQWCDRLGDLPREDWNAIAQPLATPFLEWDWLHDLEASGSVIAKAGWQPCHLVVWRGDRLVAAAPLYLKGHSYGEFVFDQQWADLAGRLGLRYYPKLLGMTPLTPAVGYRFLIAPAEDEATLTGLMLREIDRFCDNNQILSCNFLYVDPDWQPLVEAAGYSAWQHHNSVWQNRGFRTFDDYLGMFNANQRRNIKREVKSMERAGLTLTCLSGDQIPRDYFPLMYRFYSDHCDKFGWWGSKYLTRDFFDRAMHHSRHRLLFVAATPEGSDRPIAMSFCVHKGDRLYGRYWGCDHEIDNLHFNVCYYKPIEWAIANGIQSFDPGAGGSHKKRRGFPATPNWSLHRWYQPRFGQILGTWLRQVNELESQEIEAINAELPFSRPEVPLN | not soluble |
| MGSDKIHHHHHHVTITNPLPIDRNGEMVEISMAEITGKLQLPDTAQVIVLDENGLEVPYQITYDDMLIFPASVKGDASAVYTIAEGTPQPVDVVACGRQYPERLDDVAWENDRAAYRAYGPALQEKGERAFGYDIWTKSVSEPVVEDRYDGDLNRGISYHVDHGNGMDCYAVGPTLGGGTAALFPDSTIVYPYCYKDCEILDNGPLRFTAKLVYNPLVVKGDSSVIETRIISLDKGSQLNKTVVSFDNLQEITPVVTGIVLHKQNPMGYSFDADAGYIAYADSTENAANNNGVIYIGAVFPATVKGAFAQVFSEKERKERGDALGHVLAVNDYEPGAEYIYYWGSGWSKYGFEADTDWNKYLEEYARKIRNPLAVAIK | not soluble |
| MGSDKIHHHHHHVTNKRPIAFDATPDTLRRSLVLSAAAASGLGLLPGAMRDARAQSFPPLGNFPAGTEGNSVFVGVSVPLTGAFSAEGKDQQLGFELAFEHLNSGKLAGKIPELKGKGVLGKTITFGVVDTEAKAESAIQGQTRFLRNNKAILMTGCYSSAVTVALGKLAQREKVLYMAGPAGSDDVTGKDCQRYSFRSQPSTTMASRALAPVLAERLGKGKKVAYLVPDYTFGHTQFESMARLTEPMGWKTVSKQVCPIGTADFSTYLLNIANSGADVFVNCTVGNDCSVSIKQAKNFGVMKNAALVVPTLQPFLAQQLGPEVTQDILGVMDFWWSLAESNELAKQFVDDFQAKHNYKPYWPAHIAYSQMLIWAVAVERAKTFYPPEVIKALEARVPIRTTLGDVMYRPEDHQLVRPVPVMRGKKPSEMKSKDDYYEVIKMIPGADAVTPLDQGTCKMGELT | not soluble |
| MGSDKIHHHHHHVTSLISVKRLNKSFPGVRALHEVQFELMAGEVHALMGENGAGKSTLMKILAGVYTRDSGEILYDGQPVEFLSPRDAQAVGVGIIHQELQLMNHLTVAQNIFIGREPRGRLGLLLDEDRLNAQAAAILARMHVSLDPRAVVGALTVARQQMVEIAKALSFDSRVLIMDEPTSALNDAEIAELFRIIRELKSRGVGIVYISHKMDELKQIADRVTVMRDGEYVATVAARDTSVEAIIGMMVGRTLTDIAPSHSVADQGEIALEVRNLNAGPLVRDVSFALRKGEILGFAGLMGAGRTEVARAVFGADPVESGEIVVNGARATIRTPSDAVAHGIGYLSEDRKRFGLATGMDVESNIVMSNLRKFLSLNFFLRRAQIRRTASHFISLLGIRTPSATQAVRLLSGGNQQKIVIAKWLERDCDVLFFDEPTRGIDVGAKNEIYKLLRSLAGEGKAVVMISSELPEILRMSDRVIVMCEGRITGELSAAEATQERIMHLATRRETLKTAA | not soluble |
| MGSDKIHHHHHHVVVMSKVLLNIGCADVDKPGYINVDARKTKVTHLVSNAWDLDCFEENSVHEIYSRHMLEHLNPEYAKLALQKWFYILEPEGKLVVIVPDIEFHARQLLGVSRSSFGDQMEHAFAGFWGWREKERGGSDFDAHQWGYTVATLENEIGAVGFERIERVVEGVDSEPWHLQMTARKPMTSLCCPMDFRGPFP | not soluble |
| MGSDKIHHHHHHVWNDRVELSGKCEYALLALIELARGHSNGEPQQIKQLADRQNIPDRYLEQLLATLRRGGIVRSVRGARGGYLLAREPWQISMQDVVHCIDGTEMQRTEAIDQQSVTIERQILVDINVELCKAVEDVLAAYSLQDLLEIRENRASTDLMYYI | not soluble |
| MGSDKIHHHHHHVYQDLSRFSMPADFRGKPGWYVQLWWVVQALLFHPSPQIMYGWRRLLLRAFGAQIGKGVIIRPSAQITYPWKLAIGDYAWIGDEVVLYTLGNITIGKNAVVSQRSYICTGSHDFKKEAFDIFSKPIIIDDECWLATDVFVGPGVKISKGIVIGARSSVYKNIEATPGIYTGNPATRVGDR | not soluble |
| MGSDKIHHHHHHYQQQYKMAVHVTPESENDPEWPSKKKWFDASEWLSTPQYIKINDFYVINTRYVPIGDLNSDQIIFYLKKGINGSEKRFSELSVLSDLDNQEFRELMKDKLSSEYLETQFEKETLTPTIDFFLIYFIYNNKRYEVPIRREYSGNKYHYWVLEGSVKKAGYWHERFPTSYSYRKYLNK | not soluble |
| MGSKISIINHINTIRYYLKKNEVEDKVEDPAGAAEPESTEAFGTFISPSTGMEFIMAPAGEFLMGSSPEEKGRSYSESPVHRVTIKNPFYIGKYQVTQKQWKTIMGTSPSNFNEDFRPVELVSWEDVQEFIGKLNAMENTTKYRLPSEAEWEYACRAGKQSRYFFGEDESKLGDYAWYARNAGRKTHPAGRKKPNRWGLYDMCGNVWEWVQDSWHEDYNGAPSDGSAWEDGNSSNRVSRGGSWYCSTNSCRSASRFSREPEKHLANLGFRLVKELLEHHHHHH | not soluble |
| MGSLLSTPEGSNPIGKAIGFLSQRKRPAVELQDDFEPEVKVQRTCEVQDEEAEEENIEFEHEIDEEEIEEQDEIVHEQSENDQNLKDSDEKKNEIVALEKSTEKDEELPIPEKEAQVDQEDTLENLFEKETESNNTNEQQENVETNDTTSNFDLNEAEERVDVFSNGLLTSIQSTQPEIIA | soluble |
| MGSLRLLADIQGEDLESLYGYAKQLFDGGEIAAARNVYQLLSTLDHWNFDYLLALGLCHQRLGAHNEAVVCFGRAGLIKVDDPRAAFYAGISYRLDGNAEYASKAFKAAINWCGEQIDYQAIKASAVDMLALQQEEVPLEHHHHHH | not soluble |
| MGSMAHSDGIFKKEQAMCLEKIQRANELMGFNDSSPGCPGMWDNITCWKPAHVGEMVLVSCPELFRIFNPDQDMGVVSRNCTEDGWSEPFPHYFDACGFDEYESET | soluble |
| MGSMSMNAEQTVAELIARSNRLGSDPKNTNYAGGNTSAKGTDTDPVTGQPVELLWVKGSGGDLGTLTENGLAVLRLDRMRALVDVYPGVEREDEMVAAFDYCLHGRGGAAPSIDTAMHGLVDAAHVDHLHPDSGIALATAADGEALTKQIFGDRVVWVPWRRPGFQLGLDIADIKRRNPQAIGTILGGHGITAWGSTSAEAEAHSLEIIETAERYIAENGRPEPFLEHHHHHH | not soluble |
| MGSRASTLLRDEELEEIKKETGFSHSQITRLYSRFTSLDKGENGTLSREDFQRIPELAINPLGDRIINAFFSEGEDQVNFRGFMRTLAHFRPIEDNEKSKDVNGPEPLNSRSNKLHFAFRLYDLDKDDKISRDELLQVLRMMVGVNISDEQLGSIADRTIQEADQDGDSAISFTEFVKVLEKVDVEQKMSIRFLHKLAAALEHHHHHH | soluble |
| MGSSHHHHHHGGTGENLYFQGGSGAFRGSSARLAATPGVGIAPETTPVKYVPEMLNIQNAKWWNGRGKPVYRSTYNEKSWLEKARWGAFTKGSRPVMRQRYSAAALKEALEMVPEGFETCDVPRPPQRIRAQSEGVVGRWYTNYWTLHSVRYQCQLAGVEWQFGERQRPRTNYDEPHMYTDFEETKAIRDYRSRWINVNRSLVGMSRRMKESEEEARYLHFKKVQDTFWSNRKVLVNRIKSMHNQGTLQSAKDLPIKTINIKAFLAE | not soluble |
| MGSSHHHHHHGGTGENLYFQGGSGAGIDYSKWDKLCDSGTSSGTEYEGDRDDKGHDDSSRAPQVTRLEYPSRVTLGPNGVQLEQVPPKASASPFPGTCAPPEETDNGSVAVARCPIKEESFHAEYDTGASNASSHATGNTAGRRDDDQERMGATDDDEDLLYESLARNGGREGSHHWWTQTEDTVTVSFLVPWETKGKSVTEFRLYEARSTTALESELLQAHLEITILVRPACLTSPSSGPSASAAPLRIHQVFRYPVKLSEDLIDGCWQLHFMPRRHLRLLVVQLFKEPVGLGMTLWWDRCFVTDTTSVIADTQTIPDRKRRMEATPGSKEKAGQFRKVWADAHEEFRRRAQERKRKIIE | not soluble |
| MGSSHHHHHHGKTIFVIVPTNEEQVAFLEALAKQDELNFDWQNPPTEPGQPVVILIPSDMVEWFLEMLKAKGIPFTVYVEEGGSENLYFQGGGGGGRSSRHLCGLPTVRTVAATGWRYHRHGAPEKVLQYERYRVPFDRTSGQVVVKMLAAPVHRHDKNLIEGHGGPIAVPKACLPHVAGVEGVGVVEEVGSNAKLALKEGDMVWINNPSVGSWATHIVTDAENLDVVPCRADVDIEYLASLSLFHTAYHLTHDFVNIQPNDVVLQTGASSSIAQICQGYLRAKGAKLFQTMQLGRTEHAHLLAFFKLRGAFAVVPYNYARTNYMRRLLSDVPPPKLLLNHTCGGYASNLVNLLGDNGVCVTYGNTSHQPMQISNMDAIARGVQFKGFFLPSWIRRHTREARMRVHQNVVESMTITQGHGIFRAQRFKMDGDSAFAFSNAWDAPLASRKAVLRIVGEYGEWRRPRSDQAGWNIGRAVWEDMLQQMWESAGTTENPQSMKYYTPFDDIHSSFYDAKQSKELGHRDVFFRRPNAPRHNAAEQQQ | not soluble |
| MGSSHHHHHHGKTIFVIVPTNEEQVAFLEALAKQDELNFDWQNPPTEPGQPVVILIPSDMVEWFLEMLKAKGIPFTVYVEEGGSENLYFQGGGGGGRTGFNTAYSRCTYLVMMGEYKQLLEPGTFPSNDRLPPHLRLDKLSYLDLRDTEIALPPVIDVSLSNRDQVRQLEGQLPSTERSDLHVHFGPIKSQTIIMTPSSNERYVRRRLGLSEKDRKNLEAESQQAFAQARS | soluble |
| MGSSHHHHHHGKTIFVIVPTNEEQVAFLEALAKQDELNFDWQNPPTEPGQPVVILIPSDMVEWFLEMLKAKGIPFTVYVEEGGSENLYFQGGGGGGSECNISADERMDVPSEDYDVSIMIKAIHEVQDVLTSRQFATFSEVDTEIGKTLKRYEAFGDGFERFHVNLTKDALQSNDLQKSLKDMDKRCQDRLRDCASSQKDQINDILPFIRNTSSILVHGSGNLLALTIACSIQEHEGVRFYICEGRPARKGYPHGSGEQLLEKVLATPEGMRLKDKLHKYCTIVPDSGVSSVMNSVDFVIMGAYCVTEHGGLVHSTGSLQIAIVAAFRNVPCYVLCETFKFAHIFPLSTDDLKQPENGAGEVVPLVEFVPPSMITLIFSEQGIMPPSAVADEMFRFHTAPSAPGKRR | not soluble |
| MGSSHHHHHHGKTIFVIVPTNEEQVAFLEALAKQDELNFDWQNPPTEPGQPVVILIPSDMVEWFLEMLKAKGIPFTVYVEEGGSENLYFQGGGGGGVNPVVEFVDVGCAFGGMLFSLAAVFPATCMMGLEIRPKVVSFAQEKALALRQENAASLTQHYRNVWFEQMNVMKFGSNCFTKGQLSRLFFCYPDPHWKRKNIRRRIISPGLVQEYAYWLRHGGLVYTVSDVAELEEWMVQCLDDSPLFRRLAEAELCTPEHKQVLEIVTGASEDAQRTARKGLQKHFAVHMRI | not soluble |
| MGSSHHHHHHSSGEDRYKEKLLQKAKAEGVESIEELKKRLADQIEEKKKELNKIDPLRELEQHLNAGSRIHTNKEHKTTKMSNKSNEKSGNVLPKDKPYKTLDDYLKLDKIKDLSKQEVEFLWRAKWSNRDDSLVAVVPYVKTFQGMYKYAVKNPLFVLPLPRENAADGNKADKDSVPVELQYVQWQFAGPNTVHCLITSLAEYKLHQDFAKPHTTIQFHLDLANDKDMVLMNGQVESDSNVSLQDAQLLLLNVQRFYGAMGSETSIAKERIQLLEDFNKGSQNFDINKLIQLAQSMEN | soluble |

— the DeepSol protein solubility set
